What was measured:
Test in all cases: cell-based or functional assay
[1] = target: Cathepsin B (Homo sapiens (Human)) (UniProt P07858)
[2] = target: Cathepsin H (Homo sapiens (Human)) (UniProt P09668)
[3] = target: Cathepsin X/Z/P (Homo sapiens (Human)) (UniProt Q9UBR2)
Cathepsin X/Z/P (Homo sapiens (Human)), sequence (Q9UBR2 62-303 limits assumed, form in doubt): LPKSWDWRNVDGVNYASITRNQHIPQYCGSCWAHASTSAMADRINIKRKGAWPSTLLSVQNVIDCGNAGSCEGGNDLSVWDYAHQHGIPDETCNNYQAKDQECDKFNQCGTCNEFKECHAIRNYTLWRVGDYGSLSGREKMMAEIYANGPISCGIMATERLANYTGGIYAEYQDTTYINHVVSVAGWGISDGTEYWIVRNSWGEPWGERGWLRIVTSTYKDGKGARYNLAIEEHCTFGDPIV

Sialostatin L, sequence (Q8MVB6 20-133, tags or fused parts left off): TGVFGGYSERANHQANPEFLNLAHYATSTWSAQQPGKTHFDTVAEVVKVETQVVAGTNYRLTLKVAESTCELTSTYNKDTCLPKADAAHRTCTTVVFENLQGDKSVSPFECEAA
Cathepsin H (Homo sapiens (Human)), sequence (P09668 116-335 limits assumed, form in doubt): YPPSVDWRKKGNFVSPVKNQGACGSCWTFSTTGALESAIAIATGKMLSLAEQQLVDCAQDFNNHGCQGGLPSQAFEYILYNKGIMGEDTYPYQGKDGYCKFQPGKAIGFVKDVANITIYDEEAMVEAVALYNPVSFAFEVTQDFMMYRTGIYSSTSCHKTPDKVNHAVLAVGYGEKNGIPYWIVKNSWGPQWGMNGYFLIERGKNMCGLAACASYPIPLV

Substance	IC50 (inhibitor concentration at which 50% inhibition of enzymatic activity is achieved) [1] [µM]	IC50 (inhibitor concentration at which 50% inhibition of enzymatic activity is achieved) [2] [µM]	IC50 (inhibitor concentration at which 50% inhibition of enzymatic activity is achieved); 16 nM enzyme [3] [µM]
Sialostatin L2 (from UniProt B7PKZ1 19-132)	> 10	> 10	> 10
Sialostatin L (from UniProt Q8MVB6 20-133)	> 10	> 10	–
